Like-named read-outs stand apart in the source and are kept apart here.
What was measured:
[1] = molecular target: GABAAR α2 subunit large cytoplasmic loop (AA 335-419) (UniProt P23576)
[2] = molecular target: GABAAR α3 subunit large cytoplasmic loop (AA 392-406) (UniProt P20236)
[3] = molecular target: GABAAR α1 subunit large cytoplasmic loop (AA 334-420) (UniProt P62813)
[4] = molecular target: T1, SH3 domain of collybistin (CB-SH3) (mouse (murine), UniProt Q3UTH8 4-72); assay: ITC; CB-SH3 titrated against the GABAAR α-subunit loops and truncated α2 constructs; purified proteins; details: both partners purified
T1 construct: collybistin (CB1, ARHGEF9), murine, residues 4-72, encompassing the complete SH3 domain (residues 8-67); said to be identical to the SH3 domain of the human CB isoform hPEM-2; pGEX vector construct provided by T. Soykan (Brose lab); also called collybistin SH3; source: E. coli, purified (GST tag, in-situ thrombin cleavage, Superdex 200 SEC); not shown: GST, N-terminal, cleaved
T1 sequence (looked up): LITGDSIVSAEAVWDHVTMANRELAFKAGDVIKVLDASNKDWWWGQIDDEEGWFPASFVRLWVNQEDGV

[5] = molecular target: GABAAR α3 subunit large cytoplasmic loop (AA 392-406) (UniProt P20236); assay: ITC; CB-SH3 titrated against the receptor loops and truncated constructs
[6] = molecular target: large cytoplasmic loop of the GlyR β subunit (AA 378-425); assay: as above
[7] = molecular target: GABAAR α1 subunit large cytoplasmic loop (AA 334-420) (UniProt P62813); assay: as above
[8] = molecular target: T2, GABAAR α2 subunit large cytoplasmic loop (AA 335-419) (UniProt P23576 335-419); assay: as above; details: both partners purified
T2 construct: GABAA receptor α2 subunit, large cytoplasmic loop, AA 335-419; also called α2L; GABAAR-α2L

[9] = molecular target: GABAAR-α2 large cytoplasmic loop (AA 335-419); assay: ITC; CB-SH3 titrated against the GABAAR α-subunit loops and truncated α2 constructs; purified proteins
[10] = molecular target: GABAAR-α2 loop truncation α2-351St (AA 307-350); assay: as above
[11] = molecular target: GABAAR-α2 loop truncation α2-335St (AA 307-334); assay: as above
[12] = molecular target: GABAAR-α2 loop fragment α2-min3; assay: as above
[13] = molecular target: T3, GABAA receptor alpha2 large intracellular loop (Mus musculus, UniProt P26048); assay: ITC
T3 chain: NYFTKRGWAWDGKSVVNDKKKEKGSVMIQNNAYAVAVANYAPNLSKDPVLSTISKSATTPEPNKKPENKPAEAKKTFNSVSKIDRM

Molecule “E domain of gephyrin (GephE, AA 318-736) (domain or fragment)” has a Kd [1] of over 500 µM, a Kd [2] of 5 µM and a Kd [3] of 17 µM.

B1: GABAAR-α2 loop fragment α2-min1 (peptide)
chain: QNNAYAVAVANYAPN
notes: GABA-A receptor subunit alpha-2, stretch of the large cytoplasmic loop
Molecule B1 has a Kd [4] of over 500 µM.

B2: SH3 domain of collybistin (CB-SH3) (domain or fragment, murine, UniProt Q3UTH8 4-72, looked up)
chain: LITGDSIVSAEAVWDHVTMANRELAFKAGDVIKVLDASNKDWWWGQIDDEEGWFPASFVRLWVNQEDGV
notes: collybistin CB1, murine, residues 4-72, encompassing the complete SH3 domain (residues 8-67); pGEX construct provided by T. Soykan (Brose lab); source: E. coli, purified (GST tag, in-situ thrombin cleavage, Superdex 200 SEC); not shown: GST, N-terminal, cleaved
Molecule B2 has a Kd [5] of over 500 µM, a Kd [6] of over 500 µM and a Kd [7] of 500 µM. It also gave a Kd [8] of 1.3 µM, a stoichiometry N [9] of 0.62 and a Kd [10] of 7 µM.

B3: SH3 domain of collybistin (CB-SH3), Q3UTH8 4-72 (domain or fragment)
chain: LITGDSIVSAEAVWDHVTMANRELAFKAGDVIKVLDASNKDWWWGQIDDEEGWFPASFVRLWVNQEDGV
B3 showed a Kd [11] of over 500 µM and a Kd [12] of over 500 µM.

B4: GABAAR-α2 loop fragment α2-min2 (peptide)
chain: KGSVMIQNNAYAVAVANYAPNL
notes: as for B1
Work on B4 yielded a Kd [4] of over 500 µM.

B5: Collybistin SH3 (protein)
chain: ITGDSIVSAEAVWDHVTMANRGVAFKAGDVIKVLDASNKDWWWGQIDDEEGWFPASFVRLWVNQED
Work on B5 yielded a Kd [13] of 1 µM.

Source: publication PMC6081406 (Nature Communications, 2018)
